# According to article PMC6389498:
# B1: PplcA/Phly PrfA box (Phlybox) (dsDNA)
# DNA 1: TGTCCCTTTATCGTCGTTAACAAATGTTAATGCCTCGACA
# DNA 2: TGTCGAGGCATTAACATTTGTTAACGACGATAAAGGGACA
# Target: PrfA WT (Listeria monocytogenes, UniProt P22262 1-237)
# Experiment: BLI; free L-Leu, PrfA:ligand 1:100, no inhibition
# Conditions: protein: recombinant; tags: His-tag (pET28a); chain copies: 2; blunt
# PrfA WT, sequence (P22262 whole entry): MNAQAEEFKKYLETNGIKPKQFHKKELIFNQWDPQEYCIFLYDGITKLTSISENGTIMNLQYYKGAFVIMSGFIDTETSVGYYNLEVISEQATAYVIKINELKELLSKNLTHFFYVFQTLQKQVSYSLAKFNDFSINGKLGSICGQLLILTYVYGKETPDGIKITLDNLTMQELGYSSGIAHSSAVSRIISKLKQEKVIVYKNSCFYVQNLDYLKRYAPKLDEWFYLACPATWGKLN
binder,measurement,value
B1,binding result,binds
